Results taken from US20220411483A1 (Chugai, published 2022).
Changes are numbered by the printed parent chain.

T1: FcγRIIa R type extracellular domain, His tag (human, UniProt P12318 34-217)
T1 construct: extracellular domain; also called FcgRIIaR
T1 sequence (looked up): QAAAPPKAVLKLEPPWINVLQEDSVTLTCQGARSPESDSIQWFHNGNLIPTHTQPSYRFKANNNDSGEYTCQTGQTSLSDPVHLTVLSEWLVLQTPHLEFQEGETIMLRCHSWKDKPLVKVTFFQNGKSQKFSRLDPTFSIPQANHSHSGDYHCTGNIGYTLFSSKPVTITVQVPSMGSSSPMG

T2: FcγRIIb extracellular domain, His tag (human, UniProt P31994 43-217)
T2 construct: extracellular domain; also called FcgRIIb
T2 sequence (looked up): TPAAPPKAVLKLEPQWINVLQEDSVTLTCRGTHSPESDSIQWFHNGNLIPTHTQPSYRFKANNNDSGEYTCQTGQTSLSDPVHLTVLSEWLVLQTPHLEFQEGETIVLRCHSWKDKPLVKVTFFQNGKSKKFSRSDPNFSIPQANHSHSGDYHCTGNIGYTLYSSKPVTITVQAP

T3: FcγRIIa H type extracellular domain, His tag (human, UniProt P12318 34-217)
T3 construct: extracellular domain; also called FcgRIIaH
T3 sequence (looked up): T1 sequence (looked up) with R134H

B1: IL6R-P727/IL6R-L (antibody, human IgG1, kappa)
heavy: QVQLQESGPGLVKPSETLSLTCAVSGHSISHDHAWSWVRQPPGEGLEWIGFISYSGITNYNPSLQGRVTISRDNSKNTLYLQMNSLRAEDTAVYYCARSLARTTAMDYWGEGTLVTVSSASTKGPSVFPLAPSSKSTSGGTAALGCLVKDYFPEPVTVSWNSGALTSGVHTFPAVLQSSGLYSLSSVVTVPSSSLGTQTYICNVNHKPSNTKVDKKVEPKSCDKTHTCPPCPAPELLGQDSVMLFPPKPKDTLMISRTPEVTCVVVDVSPEDPEVKFNWYVDGVEVHNAKTKPREEQENSTYRVVSVLTVLHQDWLNGKEYKCKVSNKALPHPIEKTISKAKGQPREPQVYTLPPSRDELTKNQVSLTCLVKGFYPSDIAVEWESNGQPENNYKTTPPVLDSDGSFFLYSKLTVDKSRWQQGNVFSCSVMHEALHNHYTQKSLSLSP
light: not shown
B2: IL6R-P729/IL6R-L (antibody, human IgG1, kappa)
heavy: B1 heavy with L237F, H332A
light: not shown
B3: IL6R-P732/IL6R-L (antibody, human IgG1, kappa)
heavy: B1 heavy with L237F, Q239G, S326H, H332A
light: not shown
B4: IL6R-P733/IL6R-L (antibody, human IgG1, kappa)
heavy: B1 heavy with L237F, S326H, H332A
light: not shown
B5: IL6R-P734/IL6R-L (antibody, human IgG1, kappa)
heavy: B1 heavy with L237F, P270H, S326H
light: not shown
B6: IL6R-P731/IL6R-L (antibody, human IgG1, kappa)
heavy: B1 heavy with S326H, H332A
light: not shown
B7: IL6R-P728/IL6R-L (antibody, human IgG1, kappa)
heavy: B1 heavy with L237F, P270H, S326H, H332A
light: not shown
B8: IL6R-P735/IL6R-L (antibody, human IgG1, kappa)
heavy: B1 heavy with L237F
light: not shown

Target: T1, FcγRIIa R type extracellular domain, …
Experiment: SPR, bound amount per captured antibody

Relative FcgRIIaR-binding Activity	Binder
8.3 % of IL6R-G1d/IL6R-L	B1
10 % of IL6R-G1d/IL6R-L	B2
11.9 % of IL6R-G1d/IL6R-L	B3
6.3 % of IL6R-G1d/IL6R-L	B4
12.5 % of IL6R-G1d/IL6R-L	B5
8.1 % of IL6R-G1d/IL6R-L	B6
11 % of IL6R-G1d/IL6R-L	B7
14.3 % of IL6R-G1d/IL6R-L	B8

Target: T2, FcγRIIb extracellular domain, His tag
Experiment: SPR, bound amount per captured antibody

Relative FcgRIIb-binding Activity	Binder
108 % of IL6R-G1d/IL6R-L	B1
127 % of IL6R-G1d/IL6R-L	B2
165 % of IL6R-G1d/IL6R-L	B3
104 % of IL6R-G1d/IL6R-L	B4
169 % of IL6R-G1d/IL6R-L	B5
85.8 % of IL6R-G1d/IL6R-L	B6
126 % of IL6R-G1d/IL6R-L	B7
173 % of IL6R-G1d/IL6R-L	B8

Target: T4, FcγRIIIa V type extracellular domain, His tag (human, UniProt P08637 17-208)
T4 construct: extracellular domain; also called FcgRIIIaV
T4 sequence (P08637 17-208 F176V): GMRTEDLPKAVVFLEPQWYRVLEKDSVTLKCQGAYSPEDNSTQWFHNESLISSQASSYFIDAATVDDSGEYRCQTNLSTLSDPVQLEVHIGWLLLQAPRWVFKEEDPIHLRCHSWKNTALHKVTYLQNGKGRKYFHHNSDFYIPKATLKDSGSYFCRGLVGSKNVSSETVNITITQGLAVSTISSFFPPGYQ
Experiment: SPR, KD ratio

Relative FcgRIIIaV-binding Activity	Binder
0.005 fold of IL6R-G1d/IL6R-L	B1
0.006 fold of IL6R-G1d/IL6R-L	B2
0.004 fold of IL6R-G1d/IL6R-L	B3
0.004 fold of IL6R-G1d/IL6R-L	B4
0.003 fold of IL6R-G1d/IL6R-L	B5
0.006 fold of IL6R-G1d/IL6R-L	B6
0.007 fold of IL6R-G1d/IL6R-L	B7
0.005 fold of IL6R-G1d/IL6R-L	B8

Target: T1, FcγRIIa R type extracellular domain, …
Experiment: SPR, KD ratio

Relative FcgRIIaR-binding Activity	Binder
0.012 fold of IL6R-G1d/IL6R-L	B1
0.015 fold of IL6R-G1d/IL6R-L	B2
0.017 fold of IL6R-G1d/IL6R-L	B3
0.009 fold of IL6R-G1d/IL6R-L	B4
0.018 fold of IL6R-G1d/IL6R-L	B5
0.012 fold of IL6R-G1d/IL6R-L	B6
0.017 fold of IL6R-G1d/IL6R-L	B7
0.021 fold of IL6R-G1d/IL6R-L	B8

Target: T2, FcγRIIb extracellular domain, His tag
Experiment: SPR, KD ratio

Relative FcgRIIb-binding Activity	Binder
1.06 fold of IL6R-G1d/IL6R-L	B1
1.17 fold of IL6R-G1d/IL6R-L	B2
1.75 fold of IL6R-G1d/IL6R-L	B3
1.09 fold of IL6R-G1d/IL6R-L	B4
2.07 fold of IL6R-G1d/IL6R-L	B5
0.499 fold of IL6R-G1d/IL6R-L	B6
1.31 fold of IL6R-G1d/IL6R-L	B7
2.26 fold of IL6R-G1d/IL6R-L	B8

Target: T5, FcγRIa extracellular domain, His tag (human, UniProt P12314 16-292)
T5 construct: whole entry named; also called FcgRIa
T5 sequence (P12314 16-292): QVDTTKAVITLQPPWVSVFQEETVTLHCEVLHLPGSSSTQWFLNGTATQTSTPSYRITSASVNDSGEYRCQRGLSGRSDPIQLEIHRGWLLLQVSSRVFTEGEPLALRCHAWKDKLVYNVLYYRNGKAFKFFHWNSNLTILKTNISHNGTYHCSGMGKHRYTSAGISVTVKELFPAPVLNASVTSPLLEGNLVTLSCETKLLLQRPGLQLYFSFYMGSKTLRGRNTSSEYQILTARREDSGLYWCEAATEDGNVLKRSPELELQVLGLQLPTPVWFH
Experiment: SPR, KD ratio

Relative FcgRIa-binding Activity	Binder
0.0014 fold of IL6R-G1d/IL6R-L	B1
0.0005 fold of IL6R-G1d/IL6R-L	B2
0.0005 fold of IL6R-G1d/IL6R-L	B3
0.0001 fold of IL6R-G1d/IL6R-L	B4
0.0015 fold of IL6R-G1d/IL6R-L	B5
0.0049 fold of IL6R-G1d/IL6R-L	B6
0.0006 fold of IL6R-G1d/IL6R-L	B7
0.0013 fold of IL6R-G1d/IL6R-L	B8

Target: T3, FcγRIIa H type extracellular domain, …
Experiment: SPR, KD ratio

Relative FcgRIIaH-binding Activity	Binder
0.007 fold of IL6R-G1d/IL6R-L	B1
0.005 fold of IL6R-G1d/IL6R-L	B2
0.01 fold of IL6R-G1d/IL6R-L	B3
0.006 fold of IL6R-G1d/IL6R-L	B4
0.011 fold of IL6R-G1d/IL6R-L	B5
0.007 fold of IL6R-G1d/IL6R-L	B6
0.012 fold of IL6R-G1d/IL6R-L	B7
0.007 fold of IL6R-G1d/IL6R-L	B8
